# Test: soluble on expression in E. coli; label from the status in PepcDB or PDB records
row,Sequence,soluble on expression in E. coli
1,MAHHHHHHMDLVQLQRILSTHDERVVKVFVNHIPEVGLRKIDDCVLEYMLKMLEGQTSSESYLPEEIIEETMKLYFREFDVFSDSEEKLNKSTAAICQQMLKEGITKKPSEESSRLASAVNIGRQYEESLKRATMIKSVGKVTTANTNEDWTWETKRSAAKDMRKKRREDEKKAILAEEYEAFLRKRGISNTTAVTKIHHKGEGTNYSTDIRCEAIHIQLGKQVLLDDTDLVLLTGHKYGLIGRNGAGKTTLLRALAERELEGVSPFMQILHVEQEIVAGAETPLEVLLATDVERAQLLHEEQELLKQNDTEANTRLNEVYARLDAIDAHSAEARAATILHGLSFTQDMMTSPTKQLSGGWRMRVALARALFVEPDVLLLDEPTNHLDLFAVLWLEQFLRDWQKTLIVVSHSRTFLNNVCSEIIHLIGHHLHYYNGNYDQFEITRVEQERQQKKQHAAQEKQRAHIQAFIDKFRYNANRAKMAQSRIKALERMEMVADVVTDPQFAFTFPDAEPVSGSFIEMVDCEFGYKPGVSLFKDVNMGIDESSRIVLVGANGVGKSTFMNVCTGALEPRSGTVVRNKKIRVAHFAQHNMESLTPQLSSLEFLRSKFPHMEDQQLRAHLGSMGLSGERALQPIYTLSGGQKSRLVLAWITFQKPHLLLLDEPTNHLDIDTVNALIEALLAYNGGLLVISHDEYFITSLCDDIFVCEDNTVKKFDGDFAEYRKHVVKMMK,soluble
2,MSLKPGDEVKVLTFGQKGTLLEKTGGNEWNVQIGILKMKVKEKDLEFIKSAPEPKKEKMITAVKGKDYHVSLELDLRGERYENALSRVEKYLDDAVLAGYPRVSIIHGKGTGALRKGVQDLLKNHRSVKSSRFGEAGEGGSGVTVVELKEGHHHHHH,not soluble
3,MGHQVAIYDSRPFVGGKVGSWIDADGNHIEMGLHVFFFNYANLFALMRKVGAFENLLPKAHTHTFINKGGEVGELDFRFPIGAPFNGLKAFFTTSQLTWLDKLQSALALGTSPLVRGILDYEGAMKIIRALDRISFADWFRSHGGSEGSLKRMWNPIAYALGFIDTENISARCMLTVFQMFAAKTEASKLNLLAGSPAEYLHKPILDYIQARGATLHLQRRVREIEYTETNGQTVVTGLQIADGDAVERVEADVYLAACDVPGIQRLLPEAWRKWSEFDNIYKLDAVPVATVQLRFDGWVTELVDREKRHQLDHATGLDNLLYTADADFSCFTDLALSSPKDYYRKGQGSLLQCVLTPGDPFIAMKNEDIAQHVLKQVHELFPSSRDLNMTWSNVVKLAQSLYREAPGMDPFRPDQKTPIANFFLAGSYTQQDYIDSMEGATISGRRAAKAMLEAQAIAALEHHHHHH,not soluble
4,AKVIFVLAMDVSGKIASSVESWSSFEDRKNFRKITTEIGNVVMGRITFEEIGRPLPERLNVVLTRRPKTSNNPSLVFFNGSPADVVKFLEGKGYERVAVIGGKTVFTEFLREKLVDELFVTVEPYVFGKGIPFFDEFEGYFPLKLLEMRRLNERGTLFLKYSVEKSHR,soluble
5,MGSDKIHHHHHHMSSNQIAIKVTNLSKCYQIYSQPWDRLKQFFAPKIKSVIRRESRSYFKEFWALRDVSFSINRGETVGIIGRNGAGKSTLLQMICGTLTPTVGDIEVNGRVAALLELGAGFNPEFSGRDNVYLNGSVLGLSKSEIDKKFQEILDFADIGDFIDQPVKTYSSGMYVRLAFAVQACIDPEILIVDEALAVGDIGFQYKCFKRMEMLKQKGTTIIMVTHSTGSILEYADRCLVMSDGMLVGNTTDVLAAVLAYEKGMLMTERTDTAEKKEAVSQTGEIASADELSAIQNTQTNAEVDEKRFGSGRAIIEDFSIMKADGTPLSEKPLVKPNEEIYFSFKLNSSENINDVVLGVSLSRTQGGDIWGDNNIFAGHKIDLAPGLRKLKYKVKLPINTGDYLVHCGLACFNNGEREELDQRRPIAKVKFWSSRELGGVIHSPVNVIEGDELS,not soluble
6,MLMDGHTHTELCPHGSGEATEKMIQRAIQLGFQRYCITEHAPLPPAFRDQYEGTPAGYTEASLRENQVADYLALANGLKTKYAGQIEISVGFEVDFLPEHVAWTRDFLNTYGPRTQESILSVHFMRGLRQHFWCVDMSTDDFAAGFGQWLKTPQRVFEQYYQTVLASVQADLGPYAPQRIGHMSLVRKYQDYFGLTEPLDVHNLQLVDQTLALVKQQRRQLDLNLAGLYKPYCNDFYPGEQILQRAQKLDIPLVYGSDAHDIASVGRGYHLIKKLIEGLEHHHHHH,not soluble
7,MGSDKIHHHHHHMKTARLIYNPTSGREQIRKSLAYILERLELAGYETSTHATTGEGSATEAARLAGERRHDLVIAAGGDGTIYEVVNGLAGLEKRPTLGLIPAGTTNDFARALNIPRDIEKACDILIEGHTKPVDVGKAGDHYFINIAAGGTLTELTYEVPSKLKTVVGQLAYYIKGLEKLPQISPTDVRIEYDGKLFEGEIMMFLVSNTNSVGGFERLAPNASLRDGMFDFIIVKKTSFPEFLHLAGLALRGEHIKHPKVLYVQANRIKVQAEKSMQLNFDGEYGGLLPAEFVNLYQHFQMLCPKD,not soluble
8,MGSDKIHHHHHHMADNFLSQDEVDALLKGVSGEVDDAPQEAVDTGGPRPYNLATQERIVRGRMPTLEIINERFARLLRIGLYNFLRRGVEISVGPVRVSKYSEFIRNLVVPTNLNLVQFKPLRGTALMIFNPDLVFLMVDNLFGGDGRFHTRVEGRDFTQTEHRIIQRILNIVFEAYGKSWEPVYPIEFEFIRSEMNTQFANIATPNEVVVAVTFAIELGQISGEMHFCMPYSMIEPIKDLLTSSLQAENLEVDKRWIRLMRQQIQLAEVEIVADLGTAEVSLRDIVNLKVGDVIPLDIPPTIEAKVDGVPVMECAYGKFNGQYTLRVEKLLSTSAVEPKTGEQHV,not soluble
9,MPRPSAGSHHNDKLHFKKGDTVIVLSGKHKGQTGKVLLALPRDQKVVVEGVNVITKNVKPSMTNPQGGQEQRELALHASKVALVDPETGKATRVRKQIVDGKKVRVAVASGKTID,soluble
10,MGRVYYINSHGTLSRHENTLRFENAEVKKDIPVEDVEEIFVFAELSLNTKLLNFLASKGIPLHFFNYYGYYTGTFYPRESSVSGHLLIKQVEHYLDAQKRLYLAKSFVIGSILNLEYVYKISADTYLNKVKETNSIPELMSVEAEFRKLCYKKLEEVTGWELEKRTKRPPQNPLNALISFGNSLTYAKVLGEIYKTQLNPTVSYLHEPSTKRFSLSLDVAEVFKPIFVDNLIIRLIQENKIDKTHFSTELNMTFLNEIGRKVFLKAFNELLETTIFYPKLNRKVSHRTLIKLELYKLIKHLLEEEVYLPLNYGGLK,soluble
11,MRLDHLRLQNFRCYEDAHFDFQPGFNLVVGVNGSGKTSLLLGVAECLIPYGNAMGQGQEILSKEDVRFVIDRHEGRSRFERKFPVFIRADGDIFDLPNWRAVRLLEPWEGGVDPSSLSHLSAVLARNNAGEQIDFPVLAFYRANRRWSSARISAEFAAQQRTSRFDGYANWFDAVADLRDFESWLIARTLERLQDRLDSTPTVEREDELEWVNRAIRLAIPDAHDLRYDLRLQSLLVDMGEGNAVPFHELSDGQRSLIALIADIARRMCVLNPHIGKDVLANTGGIVIIDELDIHLHPAWQRNIAPTLKKAFPKVQFIATSHSPQVIGSLQPGEVILLKNGDSSHPRATYGLDSSTILEEVMGVPQREPEIEVLLDELFSTLENNELEKARLQLDALKKKAPDLPEFAGAEALLKRKELIGRLEHHHHHH,soluble
12,MGSDKIHHHHHHMRWEEVEPVVRELLDFQISSPEEFRTFINKVTDFFDRVREEHGWLYIKMTVNADKEEFAKAYEEFQKEIVAKLKPYEQKIKEKIVENEHFAPRGYEHMIKVIKNDVELFREENVPLQVKESILSRNYGTIVGNIEVDFEGEKKTLQQLSVYLRDPDRSTRELAWRKRYEGIWEVRDKLNKLFDELKEIRHQQALNAGFSNYRDYMHRLKSRFEYTPEDLYRFHEAVEKEVVPYLVERTKIRQRKLGIESVRPWDTAVDVDGKVLKPFSSVEEFMEKTERALKRLNPTFAERFRLMREKNLLDLENRKGKAPGGYNHTLPKTGAPFIFMNAVGQPGDVRTIFHELGHSMHSFETLSLPVFYRPHRMEVAELASMSLELISMEYWDEFYTDPEDLKKAKIEELEGALYFLPWCMIVDAFQHWIYTNPDHTPKERDEYFAYLMDRFNPGVDWSDLDEEKKTRWLFQLHIFEVPFYYIEYGIAQIGALAIYRNYIEDPEKTLKDYQRFLSVGCSMPVDEVYKTAGIELKFSRDYIREIVDFVAKQIEEIEK,not soluble
13,SGFNHVKPTEYKPRLLHISGDKNAKVAEVPLATSSLNSGDCFLLDAGLTIYQFNGSKSSPQEKNKAAEVARAIDAERKGLPKVEVFCETDSDIPAEFWKLLGGKGAIAAKHETA,soluble
14,AIAPAKERFFGFHPCKLVEQVEDCVRDLLEDALDGLETSLFRECALAFDALQENAVTSEHEHAKRLLLQQGLMRLRDALFTAFYDQMDRLQVYLLRNVFHIPPGLRIPNVNTSEDLVENWEQALGIDPSSVQIDANAEDEHAVDQELVALRQSLRVARQRLQRLCRERSVLEGAFHRLEGALQSRLASTLIPTEPEDPSGDCDALAKQVVTIARAVSELEAVVRSCRDQFLGDRSSAASGGAPPSGTVPAAAGGSDVGAQGALVRPPLELERIFDAHTKATRVDSLDAVDALRRALHRSC,soluble
15,MGHHHHHHSHVNTLGPEGTSSEYAAKHFISNFTLLQGLNSKLSLHDTFESCIERTLQSPLEYTIVPHAYDGIKHFYMRPDLQLLQIFRCDTPMYGLAVRPDFEFRDDMLDTSVIVSHPSPINLIKYFTRKDVRFKLVNSTSQAARKVKEGLYDIALTNELARQKYGLTFVKTFKSIPMSWSLFGKGDV,soluble
16,MLKSAFILASAPLFFTLAACSGESGTQVNTASAPATQVSRNIGSTVKNRGKLICGVSGELPGFSFVGTDAKYSGIDVDVCRAVTAALFDNPDAVEFRNLNTKERFTALQTGEIDLLSRNTTWTMSRETSVGLQFAPVIFYDGQAIMVSKNSGIKSLADLKNKAICTQTGTTTEQNLADQMRKRSITYKPVVFEDVNITFATYAEGRCDGVTTDRSALISRRTTLPKPEDNIILDELLSSEPLAPAVAKGDPQWNDIVKWVVYSLVKAEELGINSQNIAQLTNSNDPDIKRFLGTEGNLGEGLGLTNDFAARIVKHVGNYGEVYDRNLGGKTKLNLPRGQNQLAIKGGLLYSPPFR,not soluble
17,NTKDEAYNVATQATYAVAEQQTGSGDVVAVDDNVQMSKVSTVTINVLGNDIIADGVSVEISAMSAPSKGTVKLLSDGSIQYTPAKRFKNQDSFS,not soluble
18,MGLFASAPVDDGSMEIVRDFIQNMENDAQSSNKSAFADCFMDTFNFNVRGRIFTKALFVESYLTKPNPEPLILKSSIFTQGKNEIKFNVSHVVGPRTNIADFYLLREGEEGKWRLKSGIVIN,not soluble
19,GPGSPPSDPRSLHFYNPYHPNSYIRAMLAVSNVVQEYDSDGMFPVYGFGAVAPFTNGTSHFFPLSGNPSNAYLNGMQAVVDTYAGLLPMLQFSGPTNFAPTIRTITDGARRLRGVYTILLILTDGTITDMQDTIDAIVAADDAPLSIVIIGIGRADFSAMVQLDGDGGVLRDRSNRPARRDLVQFVSFSEFEGKNPARLAAAVLLEIPKQVEVWGRIVHATPGHF,not soluble
20,MGLTEQKQKHMEQLSDKNGIISALAFDQRGALKRLMAKYQSEEPTVSQIEALKVLVAEELTPYASSMLLDPEYGLPATKVLDDNAGLLLAYEKTGYDTSSTKRLPDCLDIWSAKRIKEEGADAVKFLLYYDVDSSDEVNEEKEAYIERIGSECVAEDIPFFLEILSYDEKITDSSGIEYAKIKPRKVIEAMKVFSNPRFNIDVLKVEVPVNMDYVEGFAQGETAYNKATAAAYFREQDQATLLPYIFLSAGVPAQLFQETLVFAKEAGAKFNGVLCGRATWAGSVKEYVEKGEAGARQWLRTIGFQNIDELNKILQKTATSWKER,not soluble

# Reference: the DeepSol protein solubility set
